Publication PMC10496494 (2023)

Target: NPM1 (human wildtype nucleophosmin, residues 1 to 290), purified recombinant (human, UniProt P06748 1-290)
Test: SPR; NPM1 immobilised, DDX24^WT as analyte

NPM1 (human wildtype nucleophosmin, residues 1 to 290), purified recombinant, sequence (P06748 1-290): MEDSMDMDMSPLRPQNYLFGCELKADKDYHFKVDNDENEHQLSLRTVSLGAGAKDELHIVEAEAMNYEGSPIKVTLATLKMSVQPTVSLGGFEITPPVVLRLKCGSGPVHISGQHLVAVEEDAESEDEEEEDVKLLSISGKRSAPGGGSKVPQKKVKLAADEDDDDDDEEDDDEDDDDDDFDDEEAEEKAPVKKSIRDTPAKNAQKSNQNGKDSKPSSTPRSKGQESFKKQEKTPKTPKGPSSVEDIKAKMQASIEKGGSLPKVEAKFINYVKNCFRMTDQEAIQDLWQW

- Kd: 2.4 nM
B1: DDX24^WT (human wildtype DDX24, residues 28 to 859), purified recombinant (domain or fragment)
chain: KWKEVKIDPNMFADGQMDDLVCFEELTDYQLVSPAKNPSSLFSKEAPKRKAQAVSEEEEEEEGKSSSPKKKIKLKKSKNVATEGTSTQKEFEVKDPELEAQGDDMVCDDPEAGEMTSENLVQTAPKKKKNKGKKGLEPSQSTAAKVPKKAKTWIPEVHDQKADVSAWKDLFVPRPVLRALSFLGFSAPTPIQALTLAPAIRDKLDILGAAETGSGKTLAFAIPMIHAVLQWQKRNAAPPPSNTEAPPGETRTEAGAETRSPGKAEAESDALPDDTVIESEALPSDIAAEARAKTGGTVSDQALLFGDDDAGEGPSSLIREKPVPKQNENEEENLDKEQTGNLKQELDDKSATCKAYPKRPLLGLVLTPTRELAVQVKQHIDAVARFTGIKTAILVGGMSTQKQQRMLNRRPEIVVATPGRLWELIKEKHYHLRNLRQLRCLVVDEADRMVEKGHFAELSQLLEMLNDSQYNPKRQTLVFSATLTLVHQAPARILHKKHTKKMDKTAKLDLLMQKIGMRGKPKVIDLTRNEATVETLTETKIHCETDEKDFYLYYFLMQYPGRSLVFANSISCIKRLSGLLKVLDIMPLTLHACMHQKQRLRNLEQFARLEDCVLLATDVAARGLDIPKVQHVIHYQVPRTSEIYVHRSGRTARATNEGLSLMLIGPEDVINFKKIYKTLKKDEDIPLFPVQTKYMDVVKERIRLARQIEKSEYRNFQACLHNSWIEQAAAALEIELEEDMYKGGKADQQEERRRQKQMKVLKKELRHLLSQPLFTESQKTKYPTQSGKPPLLVSAPSKSESALSCLSKQKKKKTKKPKEPQPEQPQPSTSAN
